Measured values published in patent US20100325744A1 (published 2010).
Numbering of substitutions follows the chain as printed. Numbers in names are those of the source.

B1: L236V (protein)
chain: ASTKGPSVFPLAPCSRSTSESTAALGCLVKDYFPEPVTVSWNSGALTSGVHTFPAVLQSSGLYSLSSVVTVPSSSLGTKTYTCNVDHKPSNTKVDKRVAPEFLGGPSVFLFPPKPKDTLMISRTPEVTCVVVDVSQEDPEVQFNWYVDGVEVHNAKTKPREEQFNSTYRVVSVLTVLHQDWLNGKEYKCKVSNKGLPSSIEKTISKAKGQPREPQVYTLPPSQEEMTKNQVSLTCVVKGFYPSDIAVEWESNGQPENNYKTTPPVLDSDGSFFLYSRLTVDKSRWQEGNVFSCSVMHEALHNHYTQKSLSLSLGK
B2: Y275A (protein)
chain: B1 chain with V236L, Y275A
B3: WT (protein)
chain: B1 chain with V236L
B4: F273A (protein)
chain: B1 chain with V236L, F273A

Biological target: the molecule itself
Test: monomer to dimer conversion (% monomer vs concentration); self-association

Row | Protein | EC50 [µM]
1 | B1 | 2.16
2 | B2 | 2.19
3 | B3 | 0.039
4 | B4 | 3.06
